One assay concerns the target T1, Human RAGE (human, UniProt Q15109 23-404).
T1 construct: also called receptor for advanced glycation end products; AGER
Kind of assay: flow cytometry on human colorectal cancer samples. A general note: A flow cytometer gives signals particle by particle.

The target in assay [1] is T2, V-C1-C2 construct of human RAGE (human, UniProt Q15109 23-404).
T2 construct: also called ABC construct; not shown: eGFP of the vector pEGFP-N2, fused in frame at the C-terminus
Kind of assay: binding to cells expressing RAGE domain constructs fused to eGFP. An excerpt:
The extracellular portion of the RAGE protein contains three domains with similarities to the IgG family. The three domains are V, C1, and C2 (variable, constant 1, and constant 2, respectively). RS07 binds the V domain while RS15 binds an integrated V-C1 domain (FIG. 2B). RAGE constructs used in the present exemplary embodiment include a V-C1-C2 construct starting at amino acid 23 of SEQ ID NO:1 (AQNITA . . . ), immediately following the native signal sequence. The C1-C2 construct starts at amino acid 117 of SEQ ID NO:1 (VYQIPG . . . ), and the C2 construct starts at amino acid 249 of SEQ ID NO:1 (VAPGG . . . ). Domains were predicted on Genbank and by crystal structure. To map antibody binding to individual RAGE domains, the IL2 signal sequence was cloned into pEGFP-N2, into which portions of RAGE were cloned in-frame with IL2 signal sequence (IL2ss) at the 5′ end and in-frame with eGFP at the 3′ end. In addition to the extracellular portions of RAGE, all constructs contain the RAGE transmembrane and C-terminal regions, so the GFP signal should be intracellular, while the IL2ss ensures the RAGE V, C1, and/or C2 motifs are extracellular, and accessible to antibodies. The ABC construct in FIG. 2B includes the V, C1, and C2 domains, and initiates at aa 23 of SEQ ID NO: 1. The BC construct in FIG. 2B includes the C1 and C2 domains, and initiates at aa 116 of SEQ ID NO: 1. […]

T2 sequence (Q15109 23-404): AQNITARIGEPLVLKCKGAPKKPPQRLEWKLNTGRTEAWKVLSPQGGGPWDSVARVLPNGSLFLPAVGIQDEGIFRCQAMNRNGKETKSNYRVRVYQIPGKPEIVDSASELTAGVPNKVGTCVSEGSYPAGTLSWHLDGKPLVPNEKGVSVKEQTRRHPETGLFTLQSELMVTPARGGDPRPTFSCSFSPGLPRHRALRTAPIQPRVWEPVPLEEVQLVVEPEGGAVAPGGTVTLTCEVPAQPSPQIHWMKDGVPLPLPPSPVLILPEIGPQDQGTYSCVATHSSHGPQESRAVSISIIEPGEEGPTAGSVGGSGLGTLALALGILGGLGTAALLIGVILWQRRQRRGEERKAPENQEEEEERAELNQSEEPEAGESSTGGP
T1 sequence (Q15109 23-404): as above

B1: RS15 (antibody, V domains shown)
VH: QVQLQQSGAELVRPGTSLKVSCKASGYAFTNYLIEWVNQRPGQGLEWIGVINPGSGGTHYNEKFKGKATLTADKSSSTAYMQLSSLTSDDSAIYFCARSRAVRAMDYWGQGTSVTV
VL: DIVMTQSQKFMSTSVGDRVSVTCKASQNVGTNVAWYQQKPGQSPKSLIYSASYRYSGVPDRFTGSGSGTDFTLTISNVQSEDLAEYFCQQYNSYFFTFGAGTKLELKR
notes: Mouse monoclonal IgG from a hybridoma (BALB/c immunised with human RAGE extracellular domain); also called RFT01; anti-RAGE (RS15)
Regarding B1, the binding result (in the assay with Human RAGE; in assay [1]) was “binds” throughout.

Values taken from patent US20250011424A1 (SALVARX, published 2025).
